The values below are quoted from earlier work in article PMC1617126.

A word on the Kd: it is a measure of binding affinity in units of concentration.

The target of this series is protective antigen (PA) (Bacillus anthracis) (UniProt P13423).

For ANTXR2 I domain (from UniProt P58335), the Kd was 0.96 µM.
